# Source: patent US20050032118A1, “Nitrophenyl derivatives that can be activated by light” (priority 1996, published 2005)
# Test: Photolysis of nitrobenzyl-BSA conjugates with ultraviolet light (365 nm), residues counted by spectrophotometry
# Conditions: for residues removed on irradiation with light: BSA as model protein, 8-15 residues bound, approximately 10 mins; for NBE residues cleaved from the protein / NBE residues cleaved: UV 10 min
Compound,residues removed on irradiation with light,NBE residues cleaved from the protein (3 NBE residues bound per protein molecule (50 mg sample)) [residues],NBE residues cleaved (3.5 NBE residues per BSA molecule) [residues],NBE residues cleaved (6.9 NBE residues per BSA molecule) [residues],NBE residues cleaved (10.8 NBE residues per BSA molecule) [residues],NBE residues cleaved (14.5 NBE residues per BSA molecule) [residues],NBE residues cleaved from the protein (14.8 NBE residues bound per protein molecule (25 mg sample)) [residues]
"O=[N+]([O-])c1ccccc1CO [NBA, 2-nitrobenzyl alcohol]",~65%,,,,,,
"CC(O)Cc1ccccc1[N+](=O)[O-] (centres unmarked) [NBE, 1-(2-nitrobenzyl)ethanol]",about 95%,,,,,,
NBE-BSA conjugates: bovine serum albumin randomly coated with NBE residues through nitrobenzyloxycarbonyl chloride,,3,2.5,6.0,10,14,14
